# Experimental data taken from PMC12000434 (2025).
# B1: FLAG-NDP52^WT [human] / HA-LC3C [human] (parent complex)
# chain 1: MEETIKDPPTSAVLLDHCHFSQVIFNSVEKFYIPGGDVTCHYTFTQHFIPRRKDWIGIFRVGWKTTREYYTFMWVTLPIDLNNKSAKQQEVQFKAYYLPKDDEYYQFCYVDEDGVVRGASIPFQFRPENEEDILVVTTQGEVEEIEQHNKELCKENQELKDSCISLQKQNSDMQAELQKKQEELETLQSINKKLELKVKEQKDYWETELLQLKEQNQKMSSENEKMGIRVDQLQAQLSTQEKEMEKLVQGDQDKTEQLEQLKKENDHLFLSLTEQRKDQKKLEQTVEQMKQNETTAMKKQQELMDENFDLSKRLSENEIICNALQRQKERLEGENDLLKRENSRLLSYMGLDFNSLPYQVPTSDEGGARQNPGLAYGNPYSGIQESSSPSPLSIKKCPICKADDICDHTLEQQQMQPLCFNCPICDKIFPATEKQIFEDHVFCHSL
# chain 2: MPPPQKIPSVRPFKQRKSLAIRQEEVAGIRAKFPNKIPVVVERYPRETFLPPLDKTKFLVPQELTMTQFLSIIRSRMVLRATEAFYLLVNNKSLVSMSATMAEIYRDYKDEDGFVYMTYASQETFG
# Variants of: B1
# Assay: co-immunoprecipitation (anti-HA beads), Western blot densitometry; lysates of SH-SY5Y cells; three independent experiments; parent: 100; read off a plot
row,Variant,percent of parent
1,chain 1 MEETIKDPPTSAVLLDHCHFSQVIFNSVEKFYIPGGDVTCHYTFTQHFIPRRKDWIGIFRVGWKTTREYYTFMWVTLPIDLNNKSAKQQEVQFKAYYLPKDDEYYQFCYVDEDGVVRGASIPFQFRPENEEDILVSTTQGEVEEIEQHNKELCKENQELKDSCISLQKQNSDMQAELQKKQEELETLQSINKKLELKVKEQKDYWETELLQLKEQNQKMSSENEKMGIRVDQLQAQLSTQEKEMEKLVQGDQDKTEQLEQLKKENDHLFLSLTEQRKDQKKLEQTVEQMKQNETTAMKKQQELMDENFDLSKRLSENEIICNALQRQKERLEGENDLLKRENSRLLSYMGLDFNSLPYQVPTSDEGGARQNPGLAYGNPYSGIQESSSPSPLSIKKCPICKADDICDHTLEQQQMQPLCFNCPICDKIFPATEKQIFEDHVFCHSL [chain 1 V136S],~53 % of WT
2,chain 1 MEETIKDPPTSAVLLDHCHFSQVIFNSVEKFYIPGGDVTCHYTFTQHFIPRRKDWIGIFRVGWKTTREYYTFMWVTLPIDLNNKSAKQQEVQFKAYYLPKDDEYYQFCYVDEDGVVRGASIPFQFRPENEEDILVVTTQEEVEEIEQHNKELCKENQELKDSCISLQKQNSDMQAELQKKQEELETLQSINKKLELKVKEQKDYWETELLQLKEQNQKMSSENEKMGIRVDQLQAQLSTQEKEMEKLVQGDQDKTEQLEQLKKENDHLFLSLTEQRKDQKKLEQTVEQMKQNETTAMKKQQELMDENFDLSKRLSENEIICNALQRQKERLEGENDLLKRENSRLLSYMGLDFNSLPYQVPTSDEGGARQNPGLAYGNPYSGIQESSSPSPLSIKKCPICKADDICDHTLEQQQMQPLCFNCPICDKIFPATEKQIFEDHVFCHSL [chain 1 G140E],~190 % of WT
3,"chain 1 MEETIKDPPTSAVLLDHCHFSQVIFNSVEKFYIPGGDVTCHYTFTQHFIPRRKDWIGIFRVGWKTTREYYTFMWVTLPIDLNNKSAKQQEVQFKAYYLPKDDEYYQFCYVDEDGVVRGASIPFQFRPENEEDILVSTTQEEVEEIEQHNKELCKENQELKDSCISLQKQNSDMQAELQKKQEELETLQSINKKLELKVKEQKDYWETELLQLKEQNQKMSSENEKMGIRVDQLQAQLSTQEKEMEKLVQGDQDKTEQLEQLKKENDHLFLSLTEQRKDQKKLEQTVEQMKQNETTAMKKQQELMDENFDLSKRLSENEIICNALQRQKERLEGENDLLKRENSRLLSYMGLDFNSLPYQVPTSDEGGARQNPGLAYGNPYSGIQESSSPSPLSIKKCPICKADDICDHTLEQQQMQPLCFNCPICDKIFPATEKQIFEDHVFCHSL [chain 1 V136S, chain 1 G140E]",~53 % of WT

# Variants of: B1
# Assay: co-immunoprecipitation, Western blot densitometry; lysates of SH-SY5Y cells; three independent experiments; blot labelled IP:HA(LC3C); parent: 100; read off a plot
row,Variant,percent of parent
1,chain 1 MEETIKDPPTSAVLLDHCHFSQVIFNSVEKFYIPGGDVTCHYTFTQHFIPRRKDWIGIFRVGWKTTREYYTFMWVTLPIDLNNKSAKQQEVQFKAYYLPKDDEYYQFCYVDEDGVVRGASIPFQFRPENEEDILVVTTQEEVEEIEQHNKELCKENQELKDSCISLQKQNSDMQAELQKKQEELETLQSINKKLELKVKEQKDYWETELLQLKEQNQKMSSENEKMGIRVDQLQAQLSTQEKEMEKLVQGDQDKTEQLEQLKKENDHLFLSLTEQRKDQKKLEQTVEQMKQNETTAMKKQQELMDENFDLSKRLSENEIICNALQRQKERLEGENDLLKRENSRLLSYMGLDFNSLPYQVPTSDEGGARQNPGLAYGNPYSGIQESSSPSPLSIKKCPICKADDICDHTLEQQQMQPLCFNCPICDKIFPATEKQIFEDHVFCHSL [chain 1 G140E],~240 % of WT
2,"chain 1 MEETIKDPPTSAVLLDHCHFSQVIFNSVEKFYIPGGDVTCHYTFTQHFIPRRKDWIGIFRVGWKTTREYYTFMWVTLPIDLNNKSAKQQEVQFKAYYLPKDDEYYQFCYVDEDGVVRGASIPFQFRPENEEDILVVTTQEEVEEIEQHNKELCKENQELKDSCISLQKQNSDMQAELQKKQEELETLQSINKKLELKVKEQKAAAATELLQLKEQNQKMSSENEKMGIRVDQLQAQLSTQEKEMEKLVQGDQDKTEQLEQLKKENDHLFLSLTEQRKDQKKLEQTVEQMKQNETTAMKKQQELMDENFDLSKRLSENEIICNALQRQKERLEGENDLLKRENSRLLSYMGLDFNSLPYQVPTSDEGGARQNPGLAYGNPYSGIQESSSPSPLSIKKCPICKADDICDHTLEQQQMQPLCFNCPICDKIFPATEKQIFEDHVFCHSL [chain 1 G140E, chain 1 D203A, chain 1 Y204A, chain 1 W205A, chain 1 E206A]",~230 % of WT
3,"chain 1 MEETIKDPPTSAVLLDHCHFSQVIFNSVEKFYIPGGDVTCHYTFTQHFIPRRKDWIGIFRVGWKTTREYYTFMWVTLPIDLNNKSAKQQEVQFKAYYLPKDDEYYQFCYVDEDGVVRGASIPFQFRPENEEDILVVTTQGEVEEIEQHNKELCKENQELKDSCISLQKQNSDMQAELQKKQEELETLQSINKKLELKVKEQKAAAATELLQLKEQNQKMSSENEKMGIRVDQLQAQLSTQEKEMEKLVQGDQDKTEQLEQLKKENDHLFLSLTEQRKDQKKLEQTVEQMKQNETTAMKKQQELMDENFDLSKRLSENEIICNALQRQKERLEGENDLLKRENSRLLSYMGLDFNSLPYQVPTSDEGGARQNPGLAYGNPYSGIQESSSPSPLSIKKCPICKADDICDHTLEQQQMQPLCFNCPICDKIFPATEKQIFEDHVFCHSL [chain 1 D203A, chain 1 Y204A, chain 1 W205A, chain 1 E206A]",~130 % of WT
